This note sets out measurements from patent US11945858B2, “Antibodies and antibody fragments against HNAV1.7 channel and their use in pain and cancer indications” (NATIONAL RESEARCH COUNCIL OF CANADA, priority 2018, dated 2024).

“Also recorded” adds a separate entry of the source.

The test system of data set [1] is CFA-induced thermal hyperalgesia. Kind of data set: Hargreaves Model of Hyperalgesia in rats. Particulars: for Maximum percentage of the effect (% Effect; % MPE): time of maximum (1, 2 or 4 h). The data set is classed as in vivo, rat. The protocol: Hargreaves Model of Hyperalgesia in rats. Rats aged 4-6 weeks (weight range, 180-220 g) were used for intraplantar (ipl) administrations of various antibodies and evaluation of their efficacy in the Hargreaves model of inflammatory pain. Chronic inflammatory pain is induced by injecting a low volume (50 μl) of complete Freund's adjuvant (CFA; heat-killed M. tuberculosis—Sigma, St. Louis, Mo.—suspended in oil:saline 2:1 emulsion) into the right hind paw. The paw withdrawal latency in response to the application of a radiant stimulus onto the plantar surface of both right and left paw was measured using the plantar Analgesia Meter equipment for paw stimulation (IITC Life Science, Woodland Hills, Calif.). The time taken by the animal to respond by licking or flicking its paw is interpreted as positive response (paw withdrawal latency). After 48 h of the CFA injection, the baseline for latency paw withdrawal was measured and the mAbs tested. […] A cut-off time (20 sec) is established at the end of which the heat source shuts off automatically to avoid tissue damage. Animals were kept (randomized) one per cage and staff performing pain experiments are blinded to the content of injectable compounds. Percentage of maximum possible effect (% MPE) was calculated using the formula % MPE=(Test Latency−Baseline Latency)×100/(Cut-off−Baseline Latency).

The test system of another data set is VHH FC5. The data set can be described thus: Surface Plasmon Resonance of mAbs, FC5 control. The data set is classed as binding. As to conditions: SPR; 25 °C. As for the experimental part:
(§1) Surface Plasmon Resonance of mAbs. FC5 and FC5DIE3IR proteins were SEC purified using a Superdex 75 column (GE Healthcare) connected to an AKTAPurifier (GE Healthcare) in HBS-EP+ running buffer (10 mM HEPES, pH 7.4, containing 150 mM NaCl, 3 mM EDTA and 0.05% P20) at a flow rate of 1 ml/min. Monomeric eluted peaks were used to flow over Fc-capture 3A8 mAb surfaces. To prepare the 3A8 mAb surfaces, approximately 6000 RUs of anti-mouse IgG (GE Healthcare) was first immobilized on CM5 Series S sensor chips (GE Healthcare) at pH 5.0, using standard amine coupling methods previously reported (Hussack et al., 2011) and according to the manufacturer's instructions (GE Healthcare). HBS-EP running buffer used for SPR experiments. The mAb 3A8 was captured on the anti-mouse IgG surface using 10 μg/ml of mAb, 30 sec contact time and flow rate of 10 μl/min. IMAC-purified DI-D VHH was passed through a Superdex 75 (GE Healthcare) column for SEC purification in HBS-EP buffer (10 mM HEPES, pH 7.4, containing 150 mM NaCl, 3 mM EDTA and 0.005% P20), connected to an AKTAPurifier (GE Healthcare) at a flow rate of 1 ml/min. Test binding experiments of FC5 control and FC5DIE3IR involved flowing 1 μM concentrations of SEC-pure material over the mAb surface at a flow rate of 30 μl/min for 5 min. Surfaces could be regenerated using 10 mM glycine, pH 1.7, with a 120 sec pulse at 20 μl/min. All SPR experiments were evaluated with Biacore T200 Software v 3.0. For kinetic analysis, single cycle kinetic analysis was used by flowing a range of FC5DIE3IR concentrations (320 nM-20 nM) at a flow rate of 30 μl/min, with 600 sec contact time and 1200 sec dissociation. Regeneration conditions were the same as above. Data were fit to a 1:1 binding model and analyzed using the Biacore T200 Software v3.0.
(§2) Surfaces were regenerated by washing with running buffer (HBS-EP). Data were analyzed with BIAevaluation 4.1 software as described (Hussack et al., 2011) and affinities determined using the steady state binding model.
(§3) Surface Plasmon Resonance (SPR) for monoclonal antibodies.

Data set [2] deals with ovarian cancer SKOV-3 cells. Kind of data set: Soft agar assay, SKOV-3. As to conditions: mAb 1 μM; FIG. 24D.
Data set [3] relates to glioblastoma U87MGvIII cells. The data set can be described thus: Soft agar assay, U87MGvIII. Particulars: mAb 1 μM; FIG. 24C.
In data set [4] the test system is OD1-evoked Nav1.7-mediated spontaneous pain behaviours. The data set is classed as in vivo, mouse. Particulars: 100 μg, injected 60 minutes prior to OD1; 20 min after the injection.
In another data set the test system is glioblastoma U87MG cells. Kind of data set: Soft agar assay, U87MG. As to conditions: mAb 1 μM.
The next data set has as its system CHO-3E7. Kind of data set: Cell-ELISA on live CHO-3E7 cells. The data set is classed as cell-based, Chinese hamster. Particulars: hybridoma supernatant, OD450 nm. The protocol: Cell-ELISA. Sterile 96-well plates (Costar #3595) were pre-treated with 50 μl/well of branched polyethyleneimine (PEI, Sigma Cat #408727) at 25 μg/ml in PBS for 30 min at room temperature. PEI was removed and CHO-3E7 or hNAv1.7-CHO (ChanTest cat #CT4003) were seeded at 6×10^5 cells per well in FreeStyle F17 Expression Medium (Gibco Cat #A1383501) and incubated overnight at 37° C., 5% CO2. Microplates were blocked with Starting block (Thermofisher Cat #37538) for 30 min at room temperature, and 50 μl of hybridoma supernatants were added and incubated at 4° C. for 3 h. Plates were washed 5 times with PBS and incubated for one hour at 4° C. with 50 μl of secondary antibody HRP-conjugated F(ab′)2 goat anti-mouse IgG (H+L) (Jackson Immunoresearch #115-036-062) diluted 1/5000 in blocking buffer. After 10 washes with PBS, 50 μl of TMB substrate solution (Pierce Cat #34021) was added and further incubated for 60 min at room temperature. Twenty-five μl/well of stop solution ([…] 1M) was added and OD450 nm measurements were done using a microplate reader (Spectramax 340 PC, Molecular Devices).
(ELISA stands for enzyme-linked immunosorbent assay.)

Data set [5] concerns overlapping antigen-peptides derived from DIE3IR. Kind of data set: ELISA of mAbs on overlapping antigen-peptides derived from DIE3IR. The data set is classed as binding, human. Particulars: peptides coated 100-500 ng/well. As for the experimental part:
The peptides were custom-synthesized (Biomatik) and tested for antibody binding by ELISA. […] The wells were blocked with 1% BSA in TBS-T for 30 min and then incubated with 1:1000 dilution of anti-hNav1.7 mAb at room temperature (RT) for one hr. Following three TBS-T washes (3×5 min), mAb binding to peptides was detected by incubating with HRP-conjugated anti-mouse Fc antibody for 90 min at RT in TBS-T. The bound antibody was detected with SureBlue™ TMB reagent kit (KPL) by colorimetric measurement at 450 nm according to manufacturer's instructions.
To identify the epitope for mAb 3A8 on DIE3IR, seven overlapping antigen-peptides were generated (FIG. 15A) and an ELISA was performed to determine the binding between these peptides and the various mAb (FIGS. 15C to 15I).

Data set [6] deals with T1, FC5DIE3IR (Homo sapiens, UniProt Q15858).
T1 construct: The supernatant was collected and loaded on a 5 ml MabSelect™ SuRe™ column; made in house; host or cells: CHO-3E7 (transient, pTT5 vector), purified from supernatant
Kind of data set: Hydrogen-Deuterium Exchange Mass Spectrometry (HDX-MS). The data set is classed as binding. Particulars: labelling 1, 10 and 60 min.

Data set [7] addresses T1, FC5DIE3IR. The data set can be described thus: Surface Plasmon Resonance of mAbs, FC5DIE3IR. The data set is classed as binding. The protocol:
as §1, §2, §3

The target of the next data set is hNav1.7 channels (Homo sapiens, UniProt Q15858, W1161R). The data set can be described thus: Patch-clamp whole-cell recordings in hNav1.7-HEK293 cells. The data set is classed as cell-based.
[8] abbreviates: −20 mV, after antibody application (1 μM).

Sequence of VHH FC5 (as listed by the source): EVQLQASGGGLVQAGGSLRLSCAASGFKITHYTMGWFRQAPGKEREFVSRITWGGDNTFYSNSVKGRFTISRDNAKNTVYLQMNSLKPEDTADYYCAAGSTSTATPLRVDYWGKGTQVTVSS

B1: 1H5: anti-hNav1.7 mouse monoclonal antibody, IgG1, k; heavy chain SEQ ID NO: 121, light chain SEQ ID NO: 123 (antibody, V domains shown)
VH: EVKLVESGGGLVKPGGSLKLSCAASGFTFRSYAMSWVRQTPEKGLEWVASISSGGSTYYPDSVKGRFTISRDNAGNILYLQMSSLRSEDTAMYYCARGYDGYYERIWYYAMDYWGQGTSVTVSSAKTTPPSVY
VL: DIVMTQSQKFMSTSVGDRVTVSCKASQNVGTIVAWYQQKPGQSPKALIYSASYRFSGVPDRFTGSGSGTDFTLTISNVQSEDLAEYFCQQYNTYPLTFGSGTKLEIKRADAAPTVSIFPPSS
modifications: Heavy chain of the 1H5 antibody without leader sequence; Light chain of the 1H5 antibody without leader sequence
Regarding B1, the “Percentage of effect after injection (on left paw withdrawal)” value was 0% in data set [1] (100 μg intraplantar, 0 h); 21.85% ± 3.71 in data set [1] (100 μg intraplantar, 1 h); 35.23% ± 0.88 in data set [1] (100 μg intraplantar, 2 h); 31.20% ± 5.18 in data set [1] (100 μg intraplantar, 4 h). This molecule also yielded a Latency paw withdrawal in data set [1] (100 μg intraplantar, 1 h) of 7.97 ± 0.61 s. The “Maximum percentage of the effect (% Effect; % MPE)” value in data set [1] (100 μg intraplantar) is listed as 35.23±0.88%. In the data set on VHH FC5, the “Binding to FC5 control (comment, in words)” value is on record as “No binding”. Also, the “Reduction of colony formation” value is reported as 57% in data set [2], 60% in data set [3] and 37% in the data set on glioblastoma U87MG cells (FIG. 24A). In data set [4], the “Time spent in pain behaviors (saline plus OD1 = 100%)” value is recorded as 73.84%±16.78. For the same molecule, the results for the “ELISA on live cells (duplicates) CHO-3E7” value with CHO-3E7 (duplicate 1) and in the data set on CHO-3E7 (duplicate 2) were −0.014 and 0.029, respectively. The “Peptide in which the binding motif resides / that is bound” value in [5] is recorded as “Pep #3”.

B2: 2G11: anti-hNav1.7 mouse monoclonal antibody, IgG2a, k; heavy chain SEQ ID NO: 117, light chain SEQ ID NO: 119 (antibody, V domains shown)
VH: QVQLQQPGAELVKPGASVKLSCKASGYTFTTYWMHWVKQRPGQGLEWIGEINPSNGRANYNEKFKSKATLTVDKSSSTAYMQLSSLTSEDSAVYYCLRSLGYFDYWGQGTTLTVSSAKTTAPSVYPLAPG
VL: DVVMTQSPLSLPVSLGDQASISCRSSQSLVHSNGNTYLHWYLQKAGQSPKFLIYKVSNRFSGVPDRFSGSGSGTDFTLKISRVEAEDLGVYFCSQSTHVPYTFGGGTKLEIKRADAAPTVSIFPPSS
modifications: Heavy chain of the 2G11 antibody without leader sequence; Light chain of the 2G11 antibody without leader sequence
Consider B2, for which the “Percentage of effect after injection (on left paw withdrawal)” value in [1] (100 μg intraplantar, 0 h) is on record as 0%; in data set [1] (100 μg intraplantar, 1 h), 27.98% ± 7.17; in data set [1] (100 μg intraplantar, 2 h) it was 22.02% ± 2.08; in data set [1] (100 μg intraplantar, 4 h), 25.80% ± 2.82. The Latency paw withdrawal stood at 8.80 ± 1.02 s in [1] (100 μg intraplantar, 1 h); 7.86 ± 0.33 s in [1] (100 μg intraplantar, 2 h); 8.45 ± 0.44 s in data set [1] (100 μg intraplantar, 4 h); 8.45 ± 0.44 s in [1] (intraplantar, mAbs 100 μg, 11E5 dose not stated, time not given). For the same molecule, in data set [1] (100 μg intraplantar), the “Maximum percentage of the effect (% Effect; % MPE)” value stood at 27.98±7.17%. The “Binding to FC5 control (comment, in words)” value in the data set with VHH FC5 is reported as “did not bind; also recorded: No binding”. In [4], the “Time spent in pain behaviors (saline plus OD1 = 100%)” value is on record as 63.47±4.78%. Moreover, the “Stabilization of FC5DIE3IR in response to mAb binding (residues, differential HDX-MS)” value with FC5DIE3IR [6] is given as “Asn121-Tyr134”. The “Reduction of colony formation” value with glioblastoma U87MG cells (different experiment, FIG. 24B) is 60%. The results for the “ELISA on live cells (duplicates) CHO-3E7” value with CHO-3E7 (duplicate 1) and in the data set with CHO-3E7 (duplicate 2) were −0.027 and −0.025, respectively. In the data set with FC5DIE3IR [7], the “ka” value turned out to be 9560 M⁻¹ s⁻¹. For the same molecule, the “kd” value with FC5DIE3IR [7] was 0.000526 s⁻¹. In addition, the “Rmax (RU)” value with FC5DIE3IR [7] (Fc-captured mAb, FC5-DIE3IR flowed, 25 °C) turned out to be 84 RU. The “Binding to FC5DIE3IR (comment, in words)” value in the data set with FC5DIE3IR [7] (SPR, 25 °C) is “strong and specific binding; also recorded: strongly and specifically bound”. Moreover, the “Peptide in which the binding motif resides / that is bound” value in data set [5] was “pep #40a”. In the data set with hNav1.7 channels (1 μM), the “Voltage-dependence of activation (shift V1/2 activation)” value was −4.7 mV. For the same molecule, the “Voltage-dependence of the steady-state fast inactivation (shift V1/2 inactivation)” value in the data set with hNav1.7 channels (1 μM) is on record as −13.9 mV. Further, the “Onset time of the effect (exponential fit of the current decay, T)” value with hNav1.7 channels (2 μM, single time-course recording of the figure) amounted to 57 s. For the same molecule, the “Effect on hNav1.7 currents (in words)” value in the data set with hNav1.7 channels (example recordings, 1-3 μM) was “reduced the hNav1.7 currents”. The “Fast inactivation (time constant)” value in the data set with hNav1.7 channels (setting [8]) stood at 0.81 ms. The Time-to-peak with hNav1.7 channels (setting [8]) turned out to be 0.87 ms.
